From publication PMC2955292 (Chemistry & biology, 2010) come the findings set out here.

This data set deals with the molecule itself. The experiment in a line: AUC.

One may read the stoichiometry N as the number of molecules, sites or subunits per partner or assembly.

Where “and” joins values, the source holds several entries; their conditions need not be identical. Equal entries are not always repeated.

B1: Escherichia coli ClpP (enzyme)
chain: not shown
With B1, the “stoichiometry N” value was 14 and 7.
